The values below come from patent US20150344570A1 (published 2015).

For this assay, the target named is T1, FcγRIIa R (human, UniProt P12318 34-217).
T1 construct: extracellular domain; also called FcgRIIa R type; 2aR
T1 sequence (looked up): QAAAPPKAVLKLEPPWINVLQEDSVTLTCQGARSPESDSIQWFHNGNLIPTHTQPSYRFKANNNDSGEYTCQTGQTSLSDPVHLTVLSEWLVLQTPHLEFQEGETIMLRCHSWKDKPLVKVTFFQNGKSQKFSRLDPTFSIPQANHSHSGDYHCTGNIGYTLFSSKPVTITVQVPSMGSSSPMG
The experiment in a line: SPR (Biacore), captured antibody, FcγR as analyte; relative binding activity. As to the method:
Analysis of interaction between objective antibody and the FcγR was carried out using Biacore T100 (GE Healthcare). HBS-EP+ (GE Healthcare) was used as the running buffer, and the measurement temperature was set to 25° C. Chips produced by immobilizing the antigen peptide by the amine coupling method to a Series S Sencor Chip CM5 (GE Healthcare), or alternatively, chips produced by allowing preliminarily biotinylated antigen peptides to interact with and immobilize onto a Series S Sensor Chip SA (certified) (GE Healthcare) were used. Antibodies of interest were captured onto an antigen peptide-immobilized chip, and allowed to interact to each FcγR diluted with running buffer. To regenerate and repeatedly use the chip, the antibodies captured on the chip were washed off by reacting 10 mM glycine-HCl, pH 1.5.
(In general: Surface plasmon resonance follows binding to a sensor surface in real time, without labels.)

B1: GpH7-B3 variant N325_01G/GpL16-k0 (antibody, human IgG1, kappa)
heavy: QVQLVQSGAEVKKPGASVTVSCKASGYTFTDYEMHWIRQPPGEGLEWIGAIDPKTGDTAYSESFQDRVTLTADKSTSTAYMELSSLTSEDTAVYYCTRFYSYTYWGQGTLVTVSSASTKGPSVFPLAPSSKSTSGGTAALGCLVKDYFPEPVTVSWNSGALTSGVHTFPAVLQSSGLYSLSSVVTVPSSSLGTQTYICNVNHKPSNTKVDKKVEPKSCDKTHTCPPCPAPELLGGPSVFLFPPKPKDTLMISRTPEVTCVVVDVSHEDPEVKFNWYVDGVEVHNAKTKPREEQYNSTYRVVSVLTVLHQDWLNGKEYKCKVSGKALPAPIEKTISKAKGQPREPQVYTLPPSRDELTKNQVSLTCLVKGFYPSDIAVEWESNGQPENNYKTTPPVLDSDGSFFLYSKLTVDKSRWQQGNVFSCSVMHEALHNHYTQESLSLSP
light: DIVMTQSPLSLPVTPGEPASISCQASESLVHSNRNTYLHWYLQKPGQSPQLLIYKVSNRFSGVPDRFSGSGSGTDFTLKISRVEAEDVGVYYCSQNTHVPPTFGQGTKVEIERTVAAPSVFIFPPSDEQLKSGTASVVCLLNNFYPREAKVQWKVDNALQSGNSQESVTEQDSKDSTYSLSSTLTLSKADYEKHKVYACEVTHQGLSSPVTKSFNRGEC
notes: also called Ho Ab N325_01G
As to B1, the Ho/Con_2aR was 26.7 % (GpH7-B3/GpL16-k0 = 100).

B2: GpH7-B3 variant G237_06M/GpL16-k0 (antibody, human IgG1, kappa)
heavy: not shown
light: B1 light
notes: also called Ho Ab G237_06M
Take B2: the Ho/Con_2aR is 55.3 % (GpH7-B3/GpL16-k0 = 100).

B3: GpH7-B3 variant I332_06M/GpL16-k0 (antibody, human IgG1, kappa)
heavy: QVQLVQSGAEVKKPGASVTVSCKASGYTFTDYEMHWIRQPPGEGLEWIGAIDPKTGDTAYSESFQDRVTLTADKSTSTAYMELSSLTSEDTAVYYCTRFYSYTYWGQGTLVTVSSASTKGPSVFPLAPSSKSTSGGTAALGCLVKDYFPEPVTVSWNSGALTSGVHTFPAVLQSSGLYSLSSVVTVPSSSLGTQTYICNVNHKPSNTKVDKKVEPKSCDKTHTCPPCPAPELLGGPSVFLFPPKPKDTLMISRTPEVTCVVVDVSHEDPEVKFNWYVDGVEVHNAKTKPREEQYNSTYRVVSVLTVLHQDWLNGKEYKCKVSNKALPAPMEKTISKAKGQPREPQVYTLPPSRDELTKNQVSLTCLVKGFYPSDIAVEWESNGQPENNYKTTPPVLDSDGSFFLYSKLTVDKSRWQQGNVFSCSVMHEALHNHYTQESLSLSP
light: B1 light
notes: also called Ho Ab I332_06M
On to B3, for which the Ho/Con_2aR is 105 % (GpH7-B3/GpL16-k0 = 100).

B4: GpH7-B3 variant K326_03V/GpL16-k0 (antibody, human IgG1, kappa)
heavy: not shown
light: B1 light
notes: also called Ho Ab K326_03V
For the molecule B4, the Ho/Con_2aR is 139 % (GpH7-B3/GpL16-k0 = 100).

B5: GpH7-B3 variant E333_04F/GpL16-k0 (antibody, human IgG1, kappa)
heavy: not shown
light: B1 light
notes: also called Ho Ab E333_04F
In the case of B5, the Ho/Con_2aR was 92.4 % (GpH7-B3/GpL16-k0 = 100).

B6: GpH7-B3 variant E333_09D/GpL16-k0 (antibody, human IgG1, kappa)
heavy: not shown
light: B1 light
notes: also called Ho Ab E333_09D
Consider B6, for which the Ho/Con_2aR was 96.5 % (GpH7-B3/GpL16-k0 = 100).

B7: GpH7-B3 variant G237_10E/GpL16-k0 (antibody, human IgG1, kappa)
heavy: not shown
light: B1 light
notes: also called Ho Ab G237_10E
Regarding B7, the Ho/Con_2aR is 22.5 % (GpH7-B3/GpL16-k0 = 100).

B8: GpH7-B3 variant I336_06M/GpL16-k0 (antibody, human IgG1, kappa)
heavy: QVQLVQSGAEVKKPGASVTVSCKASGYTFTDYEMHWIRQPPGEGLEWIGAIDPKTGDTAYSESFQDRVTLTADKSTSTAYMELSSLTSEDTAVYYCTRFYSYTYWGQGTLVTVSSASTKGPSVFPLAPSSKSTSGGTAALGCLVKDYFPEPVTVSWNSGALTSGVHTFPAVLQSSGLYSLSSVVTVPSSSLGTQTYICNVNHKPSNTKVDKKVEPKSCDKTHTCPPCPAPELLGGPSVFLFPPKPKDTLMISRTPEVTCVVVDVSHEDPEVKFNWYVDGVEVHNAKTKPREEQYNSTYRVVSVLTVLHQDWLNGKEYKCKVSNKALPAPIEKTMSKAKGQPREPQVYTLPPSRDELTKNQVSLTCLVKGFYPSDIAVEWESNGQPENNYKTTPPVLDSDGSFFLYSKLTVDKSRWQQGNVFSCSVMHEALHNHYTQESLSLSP
light: B1 light
notes: also called Ho Ab I336_06M
For the molecule B8, the Ho/Con_2aR is 96.4 % (GpH7-B3/GpL16-k0 = 100).

B9: GpH7-B3 variant G237_19Q/GpL16-k0 (antibody, human IgG1, kappa)
heavy: not shown
light: B1 light
notes: also called Ho Ab G237_19Q
As for B9, the Ho/Con_2aR was 14.3 % (GpH7-B3/GpL16-k0 = 100).

B10: GpH7-B3 variant E333_08L/GpL16-k0 (antibody, human IgG1, kappa)
heavy: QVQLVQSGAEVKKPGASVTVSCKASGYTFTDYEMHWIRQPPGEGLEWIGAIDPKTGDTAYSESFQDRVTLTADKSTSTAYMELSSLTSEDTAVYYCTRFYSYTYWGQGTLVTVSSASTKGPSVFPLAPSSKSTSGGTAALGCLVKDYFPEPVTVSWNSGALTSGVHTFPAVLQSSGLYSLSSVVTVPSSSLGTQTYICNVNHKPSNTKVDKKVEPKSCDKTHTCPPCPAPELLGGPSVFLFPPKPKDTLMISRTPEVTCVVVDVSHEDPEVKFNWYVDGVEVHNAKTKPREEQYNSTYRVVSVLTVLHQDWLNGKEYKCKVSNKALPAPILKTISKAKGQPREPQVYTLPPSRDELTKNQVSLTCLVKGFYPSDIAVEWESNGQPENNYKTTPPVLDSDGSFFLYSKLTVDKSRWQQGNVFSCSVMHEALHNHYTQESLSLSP
light: B1 light
notes: also called Ho Ab E333_08L
Turning to B10, the Ho/Con_2aR is 97.1 % (GpH7-B3/GpL16-k0 = 100).

B11: GpH7-B3 variant A330_12R/GpL16-k0 (antibody, human IgG1, kappa)
heavy: not shown
light: B1 light
notes: also called Ho Ab A330_12R
Turning to B11, the Ho/Con_2aR is 101 % (GpH7-B3/GpL16-k0 = 100).

B12: GpH7-B3 variant G237_02A/GpL16-k0 (antibody, human IgG1, kappa)
heavy: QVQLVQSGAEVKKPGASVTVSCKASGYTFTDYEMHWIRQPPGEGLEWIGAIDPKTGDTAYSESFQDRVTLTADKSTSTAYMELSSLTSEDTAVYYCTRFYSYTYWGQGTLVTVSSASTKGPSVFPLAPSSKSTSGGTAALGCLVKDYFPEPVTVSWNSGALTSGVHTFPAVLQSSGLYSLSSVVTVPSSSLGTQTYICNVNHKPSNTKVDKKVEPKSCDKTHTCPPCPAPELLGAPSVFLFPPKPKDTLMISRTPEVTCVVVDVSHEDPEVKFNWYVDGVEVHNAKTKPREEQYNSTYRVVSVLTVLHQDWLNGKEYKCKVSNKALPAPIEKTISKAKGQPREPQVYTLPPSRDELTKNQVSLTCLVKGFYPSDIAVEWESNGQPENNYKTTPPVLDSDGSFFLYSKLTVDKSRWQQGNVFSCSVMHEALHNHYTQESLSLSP
light: B1 light
notes: also called Ho Ab G237_02A
B12: the Ho/Con_2aR is 84 % (GpH7-B3/GpL16-k0 = 100).

B13: GpH7-B3 variant E333_15Y/GpL16-k0 (antibody, human IgG1, kappa)
heavy: not shown
light: B1 light
notes: also called Ho Ab E333_15Y
As for B13, the Ho/Con_2aR was 96.2 % (GpH7-B3/GpL16-k0 = 100).

B14: GpH7-B3 variant E269_09D/GpL16-k0 (antibody, human IgG1, kappa)
heavy: not shown
light: B1 light
notes: also called Ho Ab E269_09D
As to B14, the Ho/Con_2aR was 103 % (GpH7-B3/GpL16-k0 = 100).

B15: GpH7-B3 variant H268_20W/GpL16-k0 (antibody, human IgG1, kappa)
heavy: not shown
light: B1 light
notes: also called Ho Ab H268_20W
Regarding B15, the Ho/Con_2aR is 110 % (GpH7-B3/GpL16-k0 = 100).

B16: GpH7-B3 variant G237_08L/GpL16-k0 (antibody, human IgG1, kappa)
heavy: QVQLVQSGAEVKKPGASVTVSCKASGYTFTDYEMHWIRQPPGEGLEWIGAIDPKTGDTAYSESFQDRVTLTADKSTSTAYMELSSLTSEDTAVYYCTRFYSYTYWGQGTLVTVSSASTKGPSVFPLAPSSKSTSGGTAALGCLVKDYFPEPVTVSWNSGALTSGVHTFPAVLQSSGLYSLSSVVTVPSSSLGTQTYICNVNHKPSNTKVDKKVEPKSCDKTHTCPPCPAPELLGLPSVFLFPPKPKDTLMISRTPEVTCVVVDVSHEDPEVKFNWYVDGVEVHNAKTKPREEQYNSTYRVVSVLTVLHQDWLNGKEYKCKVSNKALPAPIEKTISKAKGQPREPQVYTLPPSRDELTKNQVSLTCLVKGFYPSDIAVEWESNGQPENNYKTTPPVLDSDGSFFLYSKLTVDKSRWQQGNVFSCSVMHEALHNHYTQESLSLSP
light: B1 light
notes: also called Ho Ab G237_08L
As to B16, the Ho/Con_2aR is 56.6 % (GpH7-B3/GpL16-k0 = 100).

B17: GpH7-B3 variant G237_20W/GpL16-k0 (antibody, human IgG1, kappa)
heavy: not shown
light: B1 light
notes: also called Ho Ab G237_20W
With B17, the Ho/Con_2aR was 107 % (GpH7-B3/GpL16-k0 = 100).

B18: GpH7-B3 variant I332_14T/GpL16-k0 (antibody, human IgG1, kappa)
heavy: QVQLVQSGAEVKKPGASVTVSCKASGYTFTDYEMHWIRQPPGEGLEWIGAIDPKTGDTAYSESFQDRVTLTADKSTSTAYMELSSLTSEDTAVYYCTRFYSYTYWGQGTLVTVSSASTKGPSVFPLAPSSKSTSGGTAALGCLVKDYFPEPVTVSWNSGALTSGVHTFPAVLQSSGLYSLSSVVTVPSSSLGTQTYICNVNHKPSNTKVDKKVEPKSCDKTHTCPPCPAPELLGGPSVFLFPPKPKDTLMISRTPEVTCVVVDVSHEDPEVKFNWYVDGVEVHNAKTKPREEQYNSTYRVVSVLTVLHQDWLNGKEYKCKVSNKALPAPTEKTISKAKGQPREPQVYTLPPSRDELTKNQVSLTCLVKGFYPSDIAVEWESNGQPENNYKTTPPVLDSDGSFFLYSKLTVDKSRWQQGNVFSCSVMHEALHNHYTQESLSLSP
light: B1 light
notes: also called Ho Ab I332_14T
Turning to B18, the Ho/Con_2aR was 99.6 % (GpH7-B3/GpL16-k0 = 100).

B19: GpH7-B3 variant A330_05P/GpL16-k0 (antibody, human IgG1, kappa)
heavy: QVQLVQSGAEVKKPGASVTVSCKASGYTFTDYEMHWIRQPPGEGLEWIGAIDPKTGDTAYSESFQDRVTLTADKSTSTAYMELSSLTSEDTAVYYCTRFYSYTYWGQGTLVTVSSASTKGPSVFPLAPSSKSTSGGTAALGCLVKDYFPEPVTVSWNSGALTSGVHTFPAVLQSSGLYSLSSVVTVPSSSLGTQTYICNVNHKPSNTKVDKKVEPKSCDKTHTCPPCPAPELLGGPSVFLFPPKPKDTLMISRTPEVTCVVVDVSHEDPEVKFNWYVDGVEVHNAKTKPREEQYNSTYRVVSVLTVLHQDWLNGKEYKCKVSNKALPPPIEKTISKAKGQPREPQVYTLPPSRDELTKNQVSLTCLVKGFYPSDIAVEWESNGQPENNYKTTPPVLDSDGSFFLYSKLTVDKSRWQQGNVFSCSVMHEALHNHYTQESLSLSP
light: B1 light
notes: also called Ho Ab A330_05P
Take B19: the Ho/Con_2aR was 36.2 % (GpH7-B3/GpL16-k0 = 100).

B20: GpH7-B3 variant A327_09D/GpL16-k0 (antibody, human IgG1, kappa)
heavy: not shown
light: B1 light
notes: also called Ho Ab A327_09D
With B20, the Ho/Con_2aR was 120 % (GpH7-B3/GpL16-k0 = 100).

B21: GpH7-B3 variant G237_18N/GpL16-k0 (antibody, human IgG1, kappa)
heavy: not shown
light: B1 light
notes: also called Ho Ab G237_18N
With B21, the Ho/Con_2aR is 73.6 % (GpH7-B3/GpL16-k0 = 100).

B22: GpH7-B3 variant G236_14T/GpL16-k0 (antibody, human IgG1, kappa)
heavy: not shown
light: B1 light
notes: also called Ho Ab G236_14T
Regarding B22, the Ho/Con_2aR was 80 % (GpH7-B3/GpL16-k0 = 100).

B23: GpH7-B3 variant A327_10E/GpL16-k0 (antibody, human IgG1, kappa)
heavy: not shown
light: B1 light
notes: also called Ho Ab A327_10E
Regarding B23, the Ho/Con_2aR was 104 % (GpH7-B3/GpL16-k0 = 100).

B24: GpH7-B3 variant I336_08L/GpL16-k0 (antibody, human IgG1, kappa)
heavy: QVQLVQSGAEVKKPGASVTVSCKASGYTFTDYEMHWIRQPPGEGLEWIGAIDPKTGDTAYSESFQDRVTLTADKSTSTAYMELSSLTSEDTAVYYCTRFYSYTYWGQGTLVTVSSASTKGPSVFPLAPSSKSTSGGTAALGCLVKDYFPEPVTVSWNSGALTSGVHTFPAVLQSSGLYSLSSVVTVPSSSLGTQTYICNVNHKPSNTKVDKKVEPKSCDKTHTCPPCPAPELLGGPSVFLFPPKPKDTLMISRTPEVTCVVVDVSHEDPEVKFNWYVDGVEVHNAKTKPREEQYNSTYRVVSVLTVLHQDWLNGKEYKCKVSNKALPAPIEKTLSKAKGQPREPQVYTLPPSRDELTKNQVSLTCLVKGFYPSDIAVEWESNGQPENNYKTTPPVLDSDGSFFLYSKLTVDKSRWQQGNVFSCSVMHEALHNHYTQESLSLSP
light: B1 light
notes: also called Ho Ab I336_08L
For B24, the Ho/Con_2aR is 105 % (GpH7-B3/GpL16-k0 = 100).

B25: GpH7-B3 variant H268_12R/GpL16-k0 (antibody, human IgG1, kappa)
heavy: not shown
light: B1 light
notes: also called Ho Ab H268_12R
For the molecule B25, the Ho/Con_2aR is 98.5 % (GpH7-B3/GpL16-k0 = 100).

B26: GpH7-B3 variant H268_01G/GpL16-k0 (antibody, human IgG1, kappa)
heavy: not shown
light: B1 light
notes: also called Ho Ab H268_01G
Regarding B26, the Ho/Con_2aR is 122 % (GpH7-B3/GpL16-k0 = 100).

B27: GpH7-B3 variant A330_01G/GpL16-k0 (antibody, human IgG1, kappa)
heavy: not shown
light: B1 light
notes: also called Ho Ab A330_01G
Turning to B27, the Ho/Con_2aR was 106 % (GpH7-B3/GpL16-k0 = 100).

B28: GpH7-B3 variant I336_18N/GpL16-k0 (antibody, human IgG1, kappa)
heavy: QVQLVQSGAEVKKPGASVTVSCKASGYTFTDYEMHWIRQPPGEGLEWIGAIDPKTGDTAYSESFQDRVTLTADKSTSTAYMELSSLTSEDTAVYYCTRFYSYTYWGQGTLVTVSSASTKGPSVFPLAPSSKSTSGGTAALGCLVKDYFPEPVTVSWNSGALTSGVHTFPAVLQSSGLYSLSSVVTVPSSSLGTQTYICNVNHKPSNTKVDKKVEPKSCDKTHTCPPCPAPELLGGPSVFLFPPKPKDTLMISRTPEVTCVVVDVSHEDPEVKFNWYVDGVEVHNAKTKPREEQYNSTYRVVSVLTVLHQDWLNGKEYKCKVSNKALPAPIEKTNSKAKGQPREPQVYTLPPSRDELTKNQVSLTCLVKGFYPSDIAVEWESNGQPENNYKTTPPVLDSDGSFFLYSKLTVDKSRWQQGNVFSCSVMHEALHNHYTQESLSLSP
light: B1 light
notes: also called Ho Ab I336_18N
Consider B28, for which the Ho/Con_2aR was 94.5 % (GpH7-B3/GpL16-k0 = 100).

B29: GpH7-B3 variant H268_15Y/GpL16-k0 (antibody, human IgG1, kappa)
heavy: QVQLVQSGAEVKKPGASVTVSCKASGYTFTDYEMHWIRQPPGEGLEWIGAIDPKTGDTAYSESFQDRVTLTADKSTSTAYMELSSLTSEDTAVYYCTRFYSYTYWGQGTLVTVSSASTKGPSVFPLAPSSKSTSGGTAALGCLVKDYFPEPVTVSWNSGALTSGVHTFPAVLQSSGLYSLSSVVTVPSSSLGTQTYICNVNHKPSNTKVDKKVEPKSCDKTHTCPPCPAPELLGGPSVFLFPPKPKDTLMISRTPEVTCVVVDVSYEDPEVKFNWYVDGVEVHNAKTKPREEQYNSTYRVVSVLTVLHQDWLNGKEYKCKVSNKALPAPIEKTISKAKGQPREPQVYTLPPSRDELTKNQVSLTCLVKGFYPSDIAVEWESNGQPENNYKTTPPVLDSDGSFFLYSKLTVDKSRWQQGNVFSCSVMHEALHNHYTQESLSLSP
light: B1 light
notes: also called Ho Ab H268_15Y
As to B29, the Ho/Con_2aR was 106 % (GpH7-B3/GpL16-k0 = 100).

B30: GpH7-B3 variant H268_05P/GpL16-k0 (antibody, human IgG1, kappa)
heavy: not shown
light: B1 light
notes: also called Ho Ab H268_05P
As for B30, the Ho/Con_2aR is 95.9 % (GpH7-B3/GpL16-k0 = 100).

B31: GpH7-B3 variant A330_11K/GpL16-k0 (antibody, human IgG1, kappa)
heavy: not shown
light: B1 light
notes: also called Ho Ab A330_11K
B31: the Ho/Con_2aR is 106 % (GpH7-B3/GpL16-k0 = 100).

B32: GpH7-B3 variant A330_15Y/GpL16-k0 (antibody, human IgG1, kappa)
heavy: not shown
light: B1 light
notes: also called Ho Ab A330_15Y
For B32, the Ho/Con_2aR is 87.5 % (GpH7-B3/GpL16-k0 = 100).

B33: GpH7-B3 variant G237_04F/GpL16-k0 (antibody, human IgG1, kappa)
heavy: not shown
light: B1 light
notes: also called Ho Ab G237_04F
As to B33, the Ho/Con_2aR is 113 % (GpH7-B3/GpL16-k0 = 100).

B34: GpH7-B3 variant H268_03V/GpL16-k0 (antibody, human IgG1, kappa)
heavy: not shown
light: B1 light
notes: also called Ho Ab H268_03V
For the molecule B34, the Ho/Con_2aR was 105 % (GpH7-B3/GpL16-k0 = 100).

B35: GpH7-B3 variant A330_19Q/GpL16-k0 (antibody, human IgG1, kappa)
heavy: not shown
light: B1 light
notes: also called Ho Ab A330_19Q
B35: the Ho/Con_2aR was 99.1 % (GpH7-B3/GpL16-k0 = 100).

B36: GpH7-B3 variant G237_09D/GpL16-k0 (antibody, human IgG1, kappa)
heavy: not shown
light: B1 light
notes: also called Ho Ab G237_09D
Consider B36, for which the Ho/Con_2aR is 73.1 % (GpH7-B3/GpL16-k0 = 100).

B37: GpH7-B3 variant H268_11K/GpL16-k0 (antibody, human IgG1, kappa)
heavy: not shown
light: B1 light
notes: also called Ho Ab H268_11K
In the case of B37, the Ho/Con_2aR was 93.4 % (GpH7-B3/GpL16-k0 = 100).

B38: GpH7-B3 variant E333_07I/GpL16-k0 (antibody, human IgG1, kappa)
heavy: not shown
light: B1 light
notes: also called Ho Ab E333_07I
With B38, the Ho/Con_2aR is 98.3 % (GpH7-B3/GpL16-k0 = 100).

B39: GpH7-B3 variant E333_05P/GpL16-k0 (antibody, human IgG1, kappa)
heavy: not shown
light: B1 light
notes: also called Ho Ab E333_05P
As to B39, the Ho/Con_2aR was 99.9 % (GpH7-B3/GpL16-k0 = 100).

B40: GpH7-B3 variant G237_13S/GpL16-k0 (antibody, human IgG1, kappa)
heavy: not shown
light: B1 light
notes: also called Ho Ab G237_13S
Take B40: the Ho/Con_2aR was 44.4 % (GpH7-B3/GpL16-k0 = 100).
